Results published in EP1775307B1 (dated 2011).

B1: HuM291-Fos F(ab'-zipper)2 (other)
chain 1: QVQLVQSGAEVKKPGASVKVSCKASGYTFISYTMHWVRQAPGQGLEWMGYINPRSGYTHYNQKLKDKATLTADKSASTAYMELSSLRSEDTAVYYCARSAYYDYDGFAYWGQGTLVTVSSASTKGPSVFPLAPSSKSTSGGTAALGCLVKDYFPEPVTVSWNSGALTSGVHTFPAVLQSSGLYSLSSVVTVPSSSLGTQTYICNVNHKPSNTKVDKKVEPKSCDKTHTCPPCKCPAGGLTDTLQAETDQLEDKKSALQTEIANLLKGKEKLEFILAATS
chain 2: DIQMTQSPSSLSASVGDRVTITCSASSSVSYMNWYQQKPGKAPKRLIYDTSKLASGVPSRFSGSGSGTDFTLTISSLQPEDFDTYYCQQWSSNPPTFGGGTKVEIKRTVAAPSVFIFPPSDEQLKSGTASVVCLLNNFYPREAKVQWKVDNALQSGNSQESVTEQDSKDSTYSLSSTLTLSKADYEKHKVYACEVTHQGLSSPVTKSFNRGEC

Tests used:
[1] = molecular target: 28/32 kDa heterodimeric antigen on the surface of malignant B-cells (human); assay: Scatchard analysis, 125I-labeled antibody on Raji cells
[2] = molecular target: T1, human CD3 antigen (CD3 complex) on T cells (human, UniProt P07766 23-207); assay: Scatchard analysis, 125I-labeled HuM291-Fos on activated human T cells
T1 construct: whole, on cells; Multi-subunit complex; also called human CD3 complex
T1 sequence (P07766 23-207, one chain of several): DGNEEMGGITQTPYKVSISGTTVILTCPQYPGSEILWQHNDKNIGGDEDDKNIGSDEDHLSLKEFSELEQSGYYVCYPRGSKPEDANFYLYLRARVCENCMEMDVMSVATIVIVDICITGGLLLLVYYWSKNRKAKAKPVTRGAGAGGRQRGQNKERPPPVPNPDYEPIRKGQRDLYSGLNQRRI

Ka [1] [M⁻¹] | Ka [2] [M⁻¹] | Molecule
2.3e+08 |  | humanized 1D10-IgG1 (antibody)
 | 1.1e+09 | B1
